7 substances from IntAct's records for PubMed 19625296 can be followed below.

For one test, the target named is dvl2_human DVL2 (UniProt O14641).
The next test has as its target dvl3_human DVL3 (UniProt Q92997).
Chain of UniProt Q92997 (Q92997 whole entry): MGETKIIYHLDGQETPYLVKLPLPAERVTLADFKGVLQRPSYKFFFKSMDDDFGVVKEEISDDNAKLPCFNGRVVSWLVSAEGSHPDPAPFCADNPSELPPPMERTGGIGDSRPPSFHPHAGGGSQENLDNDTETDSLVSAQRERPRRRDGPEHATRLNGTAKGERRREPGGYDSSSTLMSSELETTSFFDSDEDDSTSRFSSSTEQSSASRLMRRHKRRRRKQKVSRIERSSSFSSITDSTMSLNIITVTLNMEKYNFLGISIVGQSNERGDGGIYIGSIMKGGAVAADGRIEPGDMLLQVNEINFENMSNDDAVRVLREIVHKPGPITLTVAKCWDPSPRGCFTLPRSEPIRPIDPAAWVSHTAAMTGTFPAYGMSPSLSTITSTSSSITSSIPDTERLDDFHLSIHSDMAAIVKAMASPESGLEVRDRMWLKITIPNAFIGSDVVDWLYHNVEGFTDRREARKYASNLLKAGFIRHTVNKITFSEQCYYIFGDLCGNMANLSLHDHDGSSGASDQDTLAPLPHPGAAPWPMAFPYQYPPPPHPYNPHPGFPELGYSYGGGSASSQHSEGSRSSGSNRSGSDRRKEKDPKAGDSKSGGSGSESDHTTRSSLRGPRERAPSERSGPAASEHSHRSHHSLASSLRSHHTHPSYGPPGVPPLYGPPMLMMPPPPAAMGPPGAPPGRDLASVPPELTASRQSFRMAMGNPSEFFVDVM

Chain of DVL1, O14640-2 (O14640 other isoform, or with tags, fused parts or gaps): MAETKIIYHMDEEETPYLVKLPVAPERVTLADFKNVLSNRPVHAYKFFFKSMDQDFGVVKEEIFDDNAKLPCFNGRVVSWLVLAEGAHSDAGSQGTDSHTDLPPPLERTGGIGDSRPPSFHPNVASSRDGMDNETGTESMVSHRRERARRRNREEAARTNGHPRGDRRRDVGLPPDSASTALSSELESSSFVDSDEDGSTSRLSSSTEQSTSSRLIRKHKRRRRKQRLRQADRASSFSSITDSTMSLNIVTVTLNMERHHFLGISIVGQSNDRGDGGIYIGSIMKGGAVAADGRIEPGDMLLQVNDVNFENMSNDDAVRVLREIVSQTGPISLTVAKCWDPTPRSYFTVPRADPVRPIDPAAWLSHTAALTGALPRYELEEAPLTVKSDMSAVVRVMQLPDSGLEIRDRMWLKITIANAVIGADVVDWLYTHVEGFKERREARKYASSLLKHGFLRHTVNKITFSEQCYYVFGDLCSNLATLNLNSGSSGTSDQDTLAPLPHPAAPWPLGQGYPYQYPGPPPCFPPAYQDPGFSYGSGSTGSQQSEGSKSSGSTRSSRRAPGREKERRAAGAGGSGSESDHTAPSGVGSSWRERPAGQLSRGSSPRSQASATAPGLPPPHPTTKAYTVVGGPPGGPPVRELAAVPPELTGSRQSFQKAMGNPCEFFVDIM
Chain of UniProt O14641 (O14641 whole entry): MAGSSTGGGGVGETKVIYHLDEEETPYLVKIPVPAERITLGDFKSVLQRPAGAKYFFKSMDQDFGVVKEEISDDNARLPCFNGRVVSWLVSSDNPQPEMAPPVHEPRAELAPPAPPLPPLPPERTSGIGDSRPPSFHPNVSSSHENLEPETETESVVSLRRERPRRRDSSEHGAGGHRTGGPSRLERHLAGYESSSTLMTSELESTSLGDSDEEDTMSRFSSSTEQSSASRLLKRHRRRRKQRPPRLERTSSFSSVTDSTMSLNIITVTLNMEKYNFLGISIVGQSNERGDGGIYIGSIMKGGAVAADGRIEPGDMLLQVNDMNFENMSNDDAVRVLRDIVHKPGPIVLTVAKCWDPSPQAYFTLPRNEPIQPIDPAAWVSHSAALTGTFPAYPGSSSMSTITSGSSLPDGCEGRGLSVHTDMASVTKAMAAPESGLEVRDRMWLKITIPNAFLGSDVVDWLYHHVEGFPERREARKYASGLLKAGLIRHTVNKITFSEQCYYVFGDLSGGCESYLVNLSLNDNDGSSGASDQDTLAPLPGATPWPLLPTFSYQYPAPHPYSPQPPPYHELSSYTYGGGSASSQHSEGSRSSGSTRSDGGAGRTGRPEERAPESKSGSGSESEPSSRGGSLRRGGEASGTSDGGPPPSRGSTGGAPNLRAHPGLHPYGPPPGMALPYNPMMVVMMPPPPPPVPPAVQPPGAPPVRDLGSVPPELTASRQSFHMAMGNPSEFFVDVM

In the case of “Leucine-rich repeat serine/threonine-protein kinase 2 (Homo sapiens), Q5S007 R1441C”, the “effect of a mutation on the interaction” value in the test with DVL1, O14640-2 is recorded as “increasing interaction”. Regarding “Leucine-rich repeat serine/threonine-protein kinase 2 (Homo sapiens), Q5S007 R1441G”, the “effect of a mutation on the interaction” value in the test with DVL1, O14640-2 was “increasing interaction”. Still for that read-out and setting: the same measure for “Leucine-rich repeat serine/threonine-protein kinase 2 (Homo sapiens), Q5S007 R1441H”: “increasing interaction”.

Turning to “Leucine-rich repeat serine/threonine-protein kinase 2 (Homo sapiens), Q5S007 R1514Q”, in the test with dvl2_human DVL2, the “effect of a mutation on the interaction” value was “decreasing interaction”. Regarding “Leucine-rich repeat serine/threonine-protein kinase 2 (Homo sapiens), Q5S007 R1728H”, in the test with DVL1, O14640-2, the “effect of a mutation on the interaction” value is “increasing interaction”.

With “Leucine-rich repeat serine/threonine-protein kinase 2 (Homo sapiens), Q5S007 R1728L”, the “effect of a mutation on the interaction” value with DVL1, O14640-2 is on record as “increasing interaction”. In the case of “Leucine-rich repeat serine/threonine-protein kinase 2 (Homo sapiens), Q5S007 Y1699C”, the “effect of a mutation on the interaction” value with DVL1, O14640-2 is listed as “decreasing interaction”; in the test with dvl3_human DVL3 it was “decreasing interaction”; with dvl2_human DVL2, “decreasing interaction”.
